In the test the target is CitbHLH2-YFPN (citrus).

Turning to CitMYB52-YFPC (natural protein), the CitALMT promoter activity (LUC/REN, dual-luciferase assay in tobacco leaves) with the combination of CitMYB52 and CitbHLH2, against the empty vector SK set as 1 was determined as 9.8 fold.
